From US20090162358A1 (GlaxoSmithKline, published 2009)
Numbering of substitutions follows the chain as printed. Values joined by “and” are separate entries in the source; they are usually repeats but may differ in a detail not shown here. Identical values can stand only once. Ends that are not written are not given here. * marks the point of attachment. Biotin = O=C1N[C@H]2[C@H](CS[C@H]2CCCCC(=O)*)N1

What was measured:
[1] = molecular target: T1, mouse β-amyloid (1-40) (mouse, UniProt P12023 672-711); assay: SPR Biacore, same method as Table 2
T1 construct: domain: β-amyloid (1-40)
T1 peptide (looked up): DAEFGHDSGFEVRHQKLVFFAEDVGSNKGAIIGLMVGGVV
Experimental: (§1) Purified mouse antibody preparations were captured on a polyclonal anti-mouse IgG antibody chip surface. Freshly prepared human β-amyloid 1-40 was diluted down in HBS-EP buffer and passed over the captured antibody surface at concentrations ranging from 4-500 nM for 5 minutes. […] Regeneration was achieved via a pulse of 100 mM H₃PO₄. […] All runs were double referenced against a blank surface and blank buffer injections.
(§2) The same Biacore method was also used to investigate binding of 6F6 to human and mouse β-amyloid (1-40) and β-amyloid (1-42). 6F6 bound to all of these peptides with similar values.

[2] = molecular target: T2, mouse β-amyloid (1-42) (mouse, UniProt P12023 672-713); assay: SPR Biacore, same method as Table 2
T2 construct: domain: β-amyloid (1-42)
T2 peptide (looked up): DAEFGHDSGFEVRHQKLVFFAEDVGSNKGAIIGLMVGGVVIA
Experimental: as §1, §2

[3] = molecular target: T3, N-terminal coupled CGGGEDVGSNKGAIIGLMVGG (22-38) ovalbumin conjugate (coupled by the N-terminus to ovalbumin); assay: FMAT bead immunoassay, culture supernatant
T3 peptide: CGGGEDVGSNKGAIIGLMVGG
Excerpt: (§3) Each of the expressed antibodies contained in culture supernatant was then screened in an FMAT (Fluorescent Microvolume Assay Technology) homogenous immunoassay. 29 positive antibodies were identified from this screening cascade that were negative for ovalbumin protein passively absorbed to polystyrene beads but positive for: [0158] (i) N-terminal coupled […] (22-38) (SEQ ID No:73) ovalbumin conjugate bound to polystyrene beads, [0159] (ii) N-terminal biotinylated β-amyloid(1-40) peptide bound to streptavidin coated polystyrene beads, [0160] (iii) C-terminal biotinylated β-amyloid(1-40) peptide bound to streptavidin coated polystyrene beads and [0161] (iv) N-terminal biotinylated β-amyloid (24-34) peptide, residues 24-34 of β-amyloid being […] (SEQ ID No:8), bound to streptavidin coated polystyrene beads.

[4] = molecular target: T4, N-terminal biotinylated β-amyloid (24-34) peptide; assay: FMAT bead immunoassay, culture supernatant
T4 peptide: Biotin-VGSNKGAIIGL
Excerpt: as §3

[5] = molecular target: T5, ovalbumin protein (UniProt P01012 2-386); assay: FMAT bead immunoassay, culture supernatant
T5 sequence (looked up): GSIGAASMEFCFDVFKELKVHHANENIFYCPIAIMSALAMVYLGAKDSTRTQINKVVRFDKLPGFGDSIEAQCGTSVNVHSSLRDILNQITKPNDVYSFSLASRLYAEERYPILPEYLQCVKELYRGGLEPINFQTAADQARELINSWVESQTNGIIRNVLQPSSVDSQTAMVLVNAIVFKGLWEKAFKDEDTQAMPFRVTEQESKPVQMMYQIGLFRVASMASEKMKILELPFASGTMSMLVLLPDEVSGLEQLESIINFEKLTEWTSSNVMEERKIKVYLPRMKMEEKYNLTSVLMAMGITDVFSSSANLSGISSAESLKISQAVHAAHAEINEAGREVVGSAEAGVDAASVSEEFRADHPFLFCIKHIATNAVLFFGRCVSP
Excerpt: as §3

[6] = molecular target: T6, C-terminally biotinylated peptide representing 31-42 of the β-amyloid sequence; assay: SPR Biacore 3000, biotinylated peptide on streptavidin chip
T6 construct: Captured on a streptavidin sensorchip; also called peptide 31-42
T6 peptide: IIGLMVGGVVIAGSG-biotin
Experimental: (§4) Purified 6F6 monoclonal antibody was injected for 3 min at 8-64 nM over C-terminally biotinylated peptides representing 24-35 (SEQ ID No:10: […]), 28-39 (SEQ ID No:11: […]) and 31-42 (SEQ ID No:12: […]) of the β-amyloid sequence captured by a streptavidin coated sensorchip. The experiment was performed using a Biacore 3000 instrument. […] It may also indicate that residues 31-35 are not sufficient for binding 6F6 and residues above position 35 appear not to be involved in binding this antibody.

[7] = molecular target: T7, human β-amyloid 1-40 (human, UniProt P05067 672-711); assay: SPR Biacore 3000; mAb captured on anti-mouse IgG; triplicate run
T7 construct: domain: β-amyloid (1-40); Used in solution over captured antibody (Biacore) or coated on ELISA plates; also called human Aβ peptide (1-40); Aβ peptide (1-40)
Experimental: as §1

[8] = molecular target: T7, human β-amyloid 1-40; assay: SPR Biacore 3000; mAb captured on anti-mouse IgG, Aβ 1-40 at 4-500 nM
Experimental: as §1

[9] = molecular target: T8, C-terminally biotinylated peptide representing 24-35 of the β-amyloid sequence; assay: SPR Biacore 3000, biotinylated peptide on streptavidin chip, 6F6 at 8-64 nM
T8 construct: Captured on a streptavidin sensorchip; also called peptide 24-35
T8 peptide: VGSNKGAIIGLMGSG-biotin
Experimental: as §4

[10] = molecular target: T9, C-terminally biotinylated peptide representing 28-39 of the β-amyloid sequence; assay: as above
T9 construct: Captured on a streptavidin sensorchip; also called peptide 28-39
T9 peptide: KGAIIGLMVGGVGSG-biotin
Experimental: as §4

[11] = molecular target: T7, human β-amyloid 1-40; assay: SPR Biacore T100; antibody captured on anti-human IgG, Aβ 1-40 at 1-256 nM; 1:1 model
Experimental: (§5) Anti-human IgG (Biacore BR-1008-39) was coupled to a CM5 biosensor chip by primary amine coupling. The anti-beta amyloid antibodies were captured on this surface. Beta amyloid (1-40) was then passed over at 256, 64, 16, 4 and 1 nM, with a 0 nM (ie buffer alone passed over the captured antibody surface) used for double referencing. […] The data was analysed using the 1:1 model inherent to the T100. The run was carried out at 25° C. and 37° C. using HBS-EP as the running buffer.

[12] = molecular target: T7, human β-amyloid 1-40; assay: SPR Biacore T100, 25 C; antibody captured on protein A, Aβ 1-40 at 2-256 nM; mean of three experiments
Experimental: The affinity of selected heavy and light chain combinations was determined using a Biacore T100 instrument. Three independent experiments were performed using humanised antibody immobilised via protein A surface Biacore chips and injection of β-amyloid 1-40 peptides. The chimeric molecule of 6F6 served as a reference molecule. For this Protein A was immobilised on a CM5 chip by primary amine coupling in accordance with manufactures recommendations. Anti-β-amyloid antibodies were captured on this surface and after a period of stabilisation human β-amyloid 1-40 was passed over at concentrations 256-2 nM in halving dilutions. A buffer injection over the captured antibody surface was used to double reference the data set in accordance with Biacore best practice. […] The work was carried out in HBS-EP at 25° C. Results are summarised in Table 13 as the mean of all three experiments.

[13] = molecular target: T10, biotinylated β-amyloid 1-40 (human Aβ1-40 peptide in solution, competition ELISA) (human, UniProt P05067 672-711, biotin, position not stated); assay: competition ELISA: antibody pre-incubated with biotinylated Aβ 1-40, free Aβ captured on immobilised mouse 6F6 (competitor); Exp 1
T10 construct: domain: β-amyloid (1-40)
Experimental: (§6) 6F6c and humanised antibodies H₁₁L2, H11L9, H11L10, H11L12 and H11L13 were assessed for their ability to bind Aβ1-40 peptide in solution and inhibit the interaction of human Aβ1-40 peptide with mouse 6F6 monoclonal antibody in a competition ELISA. A constant concentration of biotinylated β-amyloid 1-40 was pre-incubated with serial diluted amounts of humanised 6F6 antibody variants. The mixture including complexed and free amyloid was then added to wells containing immobilised mouse 6F6 monoclonal antibody and incubated for 15 minutes at room temperature. Plates were washed and the amount of free β-amyloid that was still available for binding the immobilised parental 6F6 monoclonal antibody was then detected using streptavidin-HRP conjugate.

[14] = molecular target: T10, biotinylated β-amyloid 1-40 (human …); assay: competition ELISA: antibody pre-incubated with biotinylated Aβ 1-40, free Aβ captured on immobilised mouse 6F6 (competitor); Exp 2
Experimental: as §6

[15] = molecular target: T11, N-terminally truncated β-amyloid peptide lacking residues D23 to I31 (residues 32-40) (UniProt P05067 703-711, not fully specified); assay: SRU BIND biosensor, biotinylated peptides on streptavidin plate
T11 construct: domain: β-amyloid residues 32-40; Stands also for the shorter peptides of the set ('and beyond'); not shown: SGSG linker lengthened to make a 22-mer
T11 peptide (looked up): Biotin-IGLMVGGVV-NH2
Excerpt: (§7) The minimal binding epitope of the humanised monoclonal antibody H11L9 was fine mapped using SRU BIND plate reader (SRU Biosystems). Three peptide sets were generated, based on an 18 amino acid sequence for fine mapping of the epitope: a) an alanine scanning peptide set for which 10 of the residues 27-37 were replaced consecutively with an alanine residue; b) a set of N-terminally truncated peptides where one residue was removed successively from the N-terminus of the 18-mer peptide starting with residue 23 and c) a set of C-terminally truncated peptides where one residue was removed successively from the C-terminus of the 18-mer peptide starting with residue 40.
(§8) A streptavidin coated biosensor plate (SRU Biosystems) was washed with PBS and spun upside down to remove buffer and then washed with PBS, 0.1% tween 20 and 0.4% acetonitrile and spun upside down to remove residual buffer. Wells were resuspended in 100 ul of PBS, 0.1% tween 20 and 0.4% acetonitrile and read on the SRU plate reader to establish a baseline. […] The plate was then washed with PBS twice and then resuspended in 100 ul of PBS and the baseline re-measured. […] Binding of the antibodies was monitored. Plates were washed twice with PBS and resuspended in 100 ul of PBS, and the plates were re-measured and referenced back to the addition of antibody to look for weak binders that would be removed by the washing step. […]

[16] = molecular target: T12, C-terminally truncated β-amyloid peptide lacking residues V40 to G33 (residues 23-32) (UniProt P05067 694-703, not fully specified); assay: as above
T12 construct: domain: β-amyloid residues 23-32; Stands also for the shorter peptides of the set ('and beyond'); not shown: SGSG linker lengthened to make a 22-mer
T12 peptide (looked up): Biotin-DVGSNKGAII-NH2
Excerpt: as §7, §8

[17] = molecular target: T7, human β-amyloid 1-40; assay: SPR Biacore T100 at 37 C; antibody captured on anti-human IgG, Aβ 1-40 at 1-256 nM
Experimental: as §5
From this panel some constructs were also assessed for binding kinetics at physiological temperature.

B1: 6F6 murine monoclonal antibody (antibody, mouse IgG2a, V domains shown)
VH: EVQLQQSGAELVEPGASVKLSCTGSGFNIKVYYVHWLKQLTEQGLEWIGRIDPENGETIYTPKFQDKATLTVDTSSNTAYLQLSSLTSEDAAVYYCVSSGYWGQGTTLTVSS
VL: DIVMTQSAFSNPVTLGTSASISCRSSKSLLHRNGITYLYWYLQKPGQPPQLLIYQMSNLASGVPDRFTSSGSGTDFTLKISRVEAEDVGVYYCAQNLELWTFGGGTKLEIK
notes: also called 6F6 parental monoclonal antibody; mouse 6F6 monoclonal antibody
- binding result [1]: binds
- binding result [2]: binds
- binding result [3]: binds
- binding result [4]: binds
- binding result [5]: no binding
- binding result [6]: no binding (tested: 8-64 nM)
- Kd [7]: 1.02 nM
- koff [7]: 9.4e-05 s⁻¹
- kon [7]: 99300 M⁻¹ s⁻¹
- Kd [8]: 0.62 nM
- koff [8]: 6.57e-05 s⁻¹
- kon [8]: 106000 M⁻¹ s⁻¹
- binding result [9]: binds
- binding result [10]: binds

B2: chimeric 6F6 antibody (6F6c) (antibody, human IgG1, V domains shown)
VH: B1 VH with T107L, L108V
VL: B1 VL
notes: Murine V regions on human IgG1 (Fc disabled) and human C kappa; also called 6F6 Chimera (pur); chimeric molecule of 6F6
- Kd [11]: 1 nM
- Kd [12]: 3.74 nM
- IC50 [13]: 0.566 µg/mL
- IC50 [14]: 0.451 µg/mL

B3: humanised antibody H11L9 (antibody, human IgG1, kappa)
heavy: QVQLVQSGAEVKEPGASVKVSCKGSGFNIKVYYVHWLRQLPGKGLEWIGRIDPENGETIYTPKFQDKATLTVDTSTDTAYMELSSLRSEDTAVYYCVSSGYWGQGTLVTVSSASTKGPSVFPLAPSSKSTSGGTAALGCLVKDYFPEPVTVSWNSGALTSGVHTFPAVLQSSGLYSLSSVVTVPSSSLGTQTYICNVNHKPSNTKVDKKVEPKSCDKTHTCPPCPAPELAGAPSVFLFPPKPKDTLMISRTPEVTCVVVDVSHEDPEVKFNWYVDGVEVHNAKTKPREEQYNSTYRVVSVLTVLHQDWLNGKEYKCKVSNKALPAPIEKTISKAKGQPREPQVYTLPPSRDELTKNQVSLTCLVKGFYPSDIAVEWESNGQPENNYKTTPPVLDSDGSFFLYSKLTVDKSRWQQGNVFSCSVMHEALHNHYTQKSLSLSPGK
light: DIVMTQSPLSNPVTPGEPASISCRSSKSLLHRNGITYLYWYLQKPGQSPQLLIYQMSNLASGVPDRFSSSGSGTDFTLKISRVEAEDVGVYYCAQNLELWTFGQGTKVEIKRTVAAPSVFIFPPSDEQLKSGTASVVCLLNNFYPREAKVQWKVDNALQSGNSQESVTEQDSKDSTYSLSSTLTLSKADYEKHKVYACEVTHQGLSSPVTKSFNRGEC
notes: Human IgG1 Fc mutated heavy chain, human kappa; also called H11L9(sup); H11L9(pur)
- binding result [15]: no binding (tested: 30 ug/ml)
- binding result [16]: no binding (tested: 30 ug/ml)
- Kd [17]: 2.89 nM and 3.11 nM
- Kd [11]: 2.47 nM and 2.46 nM
- Kd [12]: 4.91 nM
- IC50 [13]: 0.588 µg/mL
- IC50 [14]: 0.518 µg/mL
